Laboratory results taken from PMC3985918 (Biochemistry, 2014).

What was measured:
TylM1 [1] = target: T1, TylM1 (Streptomyces fradiae, UniProt P95748); experiment: X-ray crystal structure, […] Å; assay type: binding; conditions: complex with SAH; active site
T1 sequence (P95748 2-255): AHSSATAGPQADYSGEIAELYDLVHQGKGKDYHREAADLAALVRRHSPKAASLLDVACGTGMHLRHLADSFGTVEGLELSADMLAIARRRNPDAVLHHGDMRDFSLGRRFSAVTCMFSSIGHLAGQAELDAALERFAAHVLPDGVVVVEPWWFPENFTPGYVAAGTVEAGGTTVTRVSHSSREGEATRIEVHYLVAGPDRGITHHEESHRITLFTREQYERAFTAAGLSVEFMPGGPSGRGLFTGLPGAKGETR

TylM1 [2] = target: T1, TylM1; experiment: X-ray crystal structure, […] Å; assay type: binding; conditions: complex with SAH; active site; remark: listed apart in the source
purified protein [3] = substrate: Cc1cn([C@H]2C[C@H](O)[C@@H](COP(=O)(O)OP(=O)(O)O[C@H]3O[C@H](C)[C@@H](O)[C@H](N)[C@H]3O)O2)c(=O)[nH]c1=O; experiment: purified protein; conditions: methyl donor SAM
purified protein [4] = substrate: Cc1cn([C@H]2C[C@H](O)[C@@H](COP(=O)(O)OP(=O)(O)O[C@H]3O[C@H](C)[C@H](O)[C@H](N)[C@H]3O)O2)c(=O)[nH]c1=O; experiment: purified protein; conditions: methyl donor SAM

With CN[C@H]1[C@@H](O)[C@@H](C)O[C@H](OP(=O)(O)OP(=O)(O)OC[C@H]2O[C@@H](n3cc(C)c(=O)[nH]c3=O)C[C@@H]2O)[C@@H]1O [dTDP-3-N-methylamino-3,6-dideoxygalactose] the “X-ray crystal structure, 2.2 Å” value (TylM1 [1]) was “enzyme in complex with SAH and dTDP-3-N-methylamino-3,6-dideoxygalactose”.

For Cc1cn([C@H]2C[C@H](O)[C@@H](COP(=O)(O)OP(=O)(O)O[C@H]3O[C@H](C)[C@@H](O)[C@H](N(C)C)[C@H]3O)O2)c(=O)[nH]c1=O [dTDP-mycaminose], the “X-ray crystal structure, 1.6 Å” value (TylM1 [2]) was “The first structure determined for this investigation was that of TylM1 in complex with SAH”.

B1: TylM1 (Streptomyces fradiae) (protein)
chain: T1 sequence (P95748 2-255)
B1 was tested, and the Km (purified protein [3]) was 79 ± 15 µM, the kcat (purified protein [3]) was 0.75 ± 0.09 s⁻¹ and the Km (purified protein [4]) was 1540 ± 80 µM. The kcat (purified protein [4]) was 0.61 ± 0.07 s⁻¹.
